In experiment [1] the target is T1, murine LAP-TGFβ1 on transfected cells (murine, UniProt P04202 30-390).
T1 construct: Overexpressed on P3U1 or HT1080 cells; also called P3U1-murine LAP-TGFβ1; murine TGFβ1 on transfected cells
Put plainly: summary table; binding to murine TGFβ1 on transfected cells.

Experiment [2] addresses T2, LAP (LAP-TGFβ1) expressed endogenously on murine cells (murine, UniProt P04202 30-390).
T2 construct: Natural LAP-TGFβ1 on primary mouse cells, GARP+ or GARPneg; also called LAP on murine platelets, T cells, Tregs, B cells, tumour immune cells
The experiment can be described thus: summary table; binding to GARP+ murine cells.

Experiment [3] concerns the target T3, human LAP-TGFβ2 on HT1080 cells (human, UniProt P61812 21-414).
T3 construct: also called human TGFβ2
T3 sequence: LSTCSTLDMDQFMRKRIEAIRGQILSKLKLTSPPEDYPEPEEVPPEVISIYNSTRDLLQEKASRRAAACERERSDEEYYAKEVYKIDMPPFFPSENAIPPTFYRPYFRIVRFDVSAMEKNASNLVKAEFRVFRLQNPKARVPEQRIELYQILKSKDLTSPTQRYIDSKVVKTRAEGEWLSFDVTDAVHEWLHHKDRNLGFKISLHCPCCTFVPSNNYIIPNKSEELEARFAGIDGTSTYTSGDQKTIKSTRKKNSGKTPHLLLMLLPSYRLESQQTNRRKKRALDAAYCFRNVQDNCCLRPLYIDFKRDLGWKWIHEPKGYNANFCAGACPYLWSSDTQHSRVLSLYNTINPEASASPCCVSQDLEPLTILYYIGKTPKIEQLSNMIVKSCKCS
Put plainly: summary table; binding to human TGFβ2. The protocol: (§1) Briefly, 4×10⁵ each of (a) HT1080 cells, (b) HT1080 cells overexpressing human LAP-TGFβ1, (c) HT1080 cells overexpressing human LAP-TGFβ2, (d) HT1080 cells overexpressing human LAP-TGFβ3, (e) HT1080 cells overexpressing murine LAP-TGFβ1, (f) P3U1 cells, (g) P3U1 cells overexpressing LAP-TGFβ1 and GARP, and (h) P3U1 cells overexpressing LAP-TGFβ1 and LRRC33 were cultured in 96-well plates. The plates were centrifuged for 5 min at 1,500 rpm, liquid was removed, and cells were resuspended with 200 μL FACS buffer. The plates were centrifuged again, diluted primary antibody was added to each well, and the plates were incubated on ice for 20 minutes, followed by centrifugation. The cells were resuspended in 200 μL FACS buffer, centrifuged again, and resuspended in 50 μL diluted secondary antibody (Alexa647-anti-Human IgG or APC-anti-Mouse IgG). The plates were incubated on ice for 20 minutes in the dark, washed twice with 200 μL FACS buffer, and cells from each well (in 200 μL FACS buffer) were read on the Attune NXT instrument.

Experiment [4] deals with T4, human LAP-TGFβ1 on transfected cells (human, UniProt P01137 30-390). The experiment can be described thus: cell-based or functional assay.
T4 sequence (P01137 other isoform, or with tags, fused parts or gaps): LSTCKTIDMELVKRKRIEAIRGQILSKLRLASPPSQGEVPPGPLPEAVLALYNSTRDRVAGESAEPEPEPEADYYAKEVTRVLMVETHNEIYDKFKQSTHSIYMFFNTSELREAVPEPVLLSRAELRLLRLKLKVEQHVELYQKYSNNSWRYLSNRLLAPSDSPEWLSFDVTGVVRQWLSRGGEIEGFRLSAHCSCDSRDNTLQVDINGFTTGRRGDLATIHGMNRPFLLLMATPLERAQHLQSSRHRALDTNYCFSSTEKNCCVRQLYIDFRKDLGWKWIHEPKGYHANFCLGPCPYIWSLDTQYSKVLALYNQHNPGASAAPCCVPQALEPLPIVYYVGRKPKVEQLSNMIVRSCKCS
For experiment [5], the target named is T1, murine LAP-TGFβ1 on transfected cells. Put plainly: cell-based or functional assay.
Experiment [6] addresses T5, human LAP-TGFβ3 on HT1080 cells (human, UniProt P10600 24-412).
T5 construct: also called human TGFβ3
T5 sequence: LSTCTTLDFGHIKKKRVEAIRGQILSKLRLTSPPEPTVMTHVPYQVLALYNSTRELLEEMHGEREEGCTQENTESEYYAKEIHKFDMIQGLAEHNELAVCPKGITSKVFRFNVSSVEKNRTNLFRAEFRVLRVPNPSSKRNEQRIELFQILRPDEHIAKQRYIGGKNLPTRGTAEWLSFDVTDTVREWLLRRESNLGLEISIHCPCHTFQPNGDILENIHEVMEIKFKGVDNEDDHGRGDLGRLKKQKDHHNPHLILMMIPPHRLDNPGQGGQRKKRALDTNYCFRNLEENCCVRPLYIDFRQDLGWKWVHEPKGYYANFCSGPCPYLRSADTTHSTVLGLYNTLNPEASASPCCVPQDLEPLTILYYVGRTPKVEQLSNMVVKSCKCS
The experiment can be described thus: summary table; binding to human TGFβ3. The method, then: as §1

Experiment [7] addresses T6, recombinant human LAP-TGFβ1-Fc fusion protein (human, UniProt P01137 30-390).
T6 construct: also called human TGFβ1 in absence of anchor protein (ForteBio); not shown: Fc part, linker and order of fusion not described
Put plainly: bio-layer interferometry (ForteBio), single concentration. From the text:
The ability of the antibodies to bind in this assay provides definitive evidence that the antibodies bind to LAP-TGFβ1 in the absence of an anchor protein.
Background: In BLI a coated tip is dipped into the sample, and binding shifts an interference pattern.

Experiment [8] concerns the target T4, human LAP-TGFβ1 on transfected cells. The experiment can be described thus: summary table; binding to human TGFβ1 on transfected cells.
The target of experiment [9] is T7, human LAP-TGFβ1 with a Y74T mutation on HT1080 cells (human, UniProt P01137 30-390).
T7 construct: also called HT1080-Y74T; Y74T (open) LAP-TGFβ1 variant
T7 sequence (P01137 other isoform, or with tags, fused parts or gaps Y74T Y74T): as the sequence (P01137 other isoform, or with tags, fused parts or gaps) above, with Y74T counted along it
The experiment can be described thus: flow cytometry, HT1080 cells overexpressing the variant. The method, then: as §1
(§2) Briefly, 4×10⁵ each of (a) HT1080 cells, (b) HT1080 cells overexpressing human LAP-TGFβ1, (c) HT1080 cells overexpressing LAP-TGFβ1 with K27C and Y75C mutations, (d) HT1080 cells overexpressing LAP-TGFβ1 with a Y74T mutation, and (e) HT1080 cells overexpressing the LAP-only variant were cultured in 96-well plates. […]

For experiment [10], the target named is T3, human LAP-TGFβ2 on HT1080 cells. The experiment can be described thus: flow cytometry, HT1080 cells overexpressing human LAP-TGFβ2. The protocol:
as §1
Background: A flow cytometer gives signals particle by particle.

The target in experiment [11] is T5, human LAP-TGFβ3 on HT1080 cells. Put plainly: flow cytometry, HT1080 cells overexpressing human LAP-TGFβ3. The method, then: as §1
Experiment [12] concerns the target T8, mature TGFβ1 (free human TGFβ1, without LAP) (human, UniProt P01137 279-390).
T8 construct: also called free TGFβ1
Put plainly: inhibition of a TGFβ1 ELISA after pre-incubation with mature TGFβ1. The protocol: To determine whether anti-LAP antibodies 28G11_hIgG1, 22F9_hIgG1, 20E6_hIgG1, 17G8_hIgG1, and 24E3_hIgG1, bind to free human TGFβ1 (i.e., mature TGFβ1 that lacks LAP), the ability of the antibodies to inhibit an anti-TGFβ ELISA was evaluated. Briefly, mature TGFβ1 (1000 μg) was incubated with the indicated anti-LAP antibodies at 10 μg/mL, an isotype control antibody as a negative control or the anti-TGFβ antibody 1D11 as a positive control for 10 minutes on ice. Supernatants were assayed in a TGFβ1 ELISA (R&D Systems) according to the manufacturer instructions to measure free TGFβ1.
On the technique in general: ELISA stands for enzyme-linked immunosorbent assay.

Experiment [13] concerns the target T9, LAP-only variant (human LAP without mature TGFβ1) on HT1080 cells (human, UniProt P01137 30-277).
T9 construct: Overexpressed on HT1080 cells; also called HT1080-emptyLAP; empty LAP
The experiment can be described thus: flow cytometry, HT1080 cells overexpressing the LAP-only variant. The protocol: as §1, §2

Residue numbers refer to the chain shown, from its start.

T1 sequence (P04202 30-390): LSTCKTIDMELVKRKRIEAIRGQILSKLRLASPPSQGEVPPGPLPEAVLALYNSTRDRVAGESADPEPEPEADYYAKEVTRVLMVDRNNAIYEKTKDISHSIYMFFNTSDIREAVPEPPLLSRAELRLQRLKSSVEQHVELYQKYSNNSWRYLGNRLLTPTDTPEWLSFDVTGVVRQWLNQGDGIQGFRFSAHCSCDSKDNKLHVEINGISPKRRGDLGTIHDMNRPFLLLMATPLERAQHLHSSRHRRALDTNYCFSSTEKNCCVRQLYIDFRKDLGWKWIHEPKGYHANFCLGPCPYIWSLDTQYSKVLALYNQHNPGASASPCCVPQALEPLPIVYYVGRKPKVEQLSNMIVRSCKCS
T2 sequence (P04202 30-390): as above
T9 sequence (P01137 30-277 limits assumed, change not shown): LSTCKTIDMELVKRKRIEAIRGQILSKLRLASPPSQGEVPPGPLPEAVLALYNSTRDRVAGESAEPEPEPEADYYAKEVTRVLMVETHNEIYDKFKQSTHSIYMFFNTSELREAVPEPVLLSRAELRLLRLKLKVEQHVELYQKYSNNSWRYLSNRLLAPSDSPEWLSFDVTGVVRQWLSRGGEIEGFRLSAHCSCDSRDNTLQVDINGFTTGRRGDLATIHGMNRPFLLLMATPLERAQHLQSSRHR
T8 sequence (P01137 279-390 limits assumed): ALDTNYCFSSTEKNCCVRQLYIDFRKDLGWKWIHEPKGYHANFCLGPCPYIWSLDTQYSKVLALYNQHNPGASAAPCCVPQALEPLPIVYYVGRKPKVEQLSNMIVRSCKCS
T6 sequence (P01137 other isoform, or with tags, fused parts or gaps limits assumed): as the sequence (P01137 other isoform, or with tags, fused parts or gaps) above

B1: 7H4 (antibody, V domains shown)
VH: DVQLQESGPGLVKPSQSLSLTCSVTGYSITSGYYWNWIRQFPGNKLEWMGYISYDGTNNYNPSLKNRISITRDTSKHQFFLKLNSVTTEDTATYYCARSFYNNYFDFWGQGTTLTVSS
VL: DIQMTQSPSSLSASLGGKVTITCKASQDIDKYIAWYQHKPGKGPRLLIHYTSTLQPGIPSRFSGSGSGRDYSFNISNLEPEDIATYYCLQYDNLRTFGGGTKLEIK
On to B1, for which the binding result in experiment [1] and in experiment [2] was “binds” each time.

B2: 28G11 (antibody, V domains shown)
VH: EVKLVESGGGLVQPGGSLSLSCAASGFTFTDYYMSWVRQPPGKALEWLGFIRNKPNGYTTEYSASVKGRFTISRDNSQSILYLQMNVLRAEDSATYYCARYTGGGYFDYWGQGTTLTVSS
VL: DIQMTQTTSSLSASLGDRLTISCRASQDISNYLNWYQQKPDGTVKLLIYYTSRLHSGVPSRFSGSGSGTDYSLTISNLEQADIATYFCQQGDTLPWTFGGGTKLEIK
notes: Mouse hybridoma antibody; Used biotinylated or dye-conjugated in cell assays; also called 28G11_(hyb); 28G11_hyb
In the case of B2, the binding result in [3] and in experiment [6] was “no binding” in each case. Moreover, the “IC50 of inhibition of TGFβ1 activation, P3U1 cell assay” value in [4] worked out at 1.4 µg/mL; in [5] it was 1 µg/mL.

B3: 16B4 (antibody, V domains shown)
VH: QVTLKESGPGILQPSQTLSLTCSFSGFSLNTFGMGVGWIRQPSGKGLEWLAHIWWDDDKYYNPALKSRLTISKDTSKNQVFLKIANVDTADTATYYCARIYYYGSWGLYYFDYWGQGTTLTVSS
VL: B2 VL with L19V, A81E, D92N, W96P
Turning to B3, the binding result in experiment [7] and in [8] was “no binding” each time.

B4: 28G11_hIgG1 (antibody, V domains shown)
VH: B2 VH
VL: B2 VL
notes: 28G11 in human IgG1 format, by its name
B4: the binding result in experiment [9] was “no binding”; in experiment [10], “no binding”; in experiment [11], “no binding”; in experiment [12], “no binding (tested: 10 µg/mL)”; in experiment [13], “no binding”.

The values above are taken from patent US20190144549A1 (TILOS THERAPEUTICS, published 2019).
